Consider five substances from article PMC4295097.

The target of the assay is meditope-enabled trastuzumab. As to the kind of experiment: SPR.
“meditope-protein L construct with six-residue linker GGGGSE (designed binder)” displayed a Kd of 0.18 nM.

“meditope-protein L construct with six-residue linker GGPGSE (designed binder)” registered a Kd of 0.18 nM.

The substance “meditope-protein L construct with six-residue linker PPPGPP (designed binder)” had a Kd of 1.1 nM.

“meditope-protein L construct with three-residue linker PSE (designed binder)” had a Kd of 1.3 nM.

In turn, “meditope-protein L construct with zero length linker (designed binder)” showed a Kd of 170 nM and a kon of 160000 M⁻¹ s⁻¹.
